Publication PMC11399261 (Nature Communications, 2024)

B1: His-SUMO-Cdc6 (natural protein)
chain: MSAIPITPTKRIRRNLFDDAPATPPRPLKRKKLQFTDVTPESSPEKLQFGSQSIFLRTKALLQKSSELVNLNSSDGALPARTAEYEQVMNFLAKAISEHRSDSLYITGPPGTGKTAQLDMIIRQKFQSLPLSLSTPRSKDVLRHTNPNLQNLSWFELPDGRLESVAVTSINCISLGEPSSIFQKIFDSFQDLNGPTLQIKNMQHLQKFLEPYHKKTTFVVVLDEMDRLLHANTSETQSVRTILELFLLAKLPTVSFVLIGMANSLDMKDRFLSRLNLDRGLLPQTIVFQPYTAEQMYEIVIQKMSSLPTIIFQPMAIKFAAKKCAGNTGDLRKLFDVLRGSIEIYELEKRFLLSPTRGSLNSAQVPLTPTTSPVKKSYPEPQGKIGLNYIAKVFSKFVNNNSTRTRIAKLNIQQKLILCTIIQSLKLNSDATIDESFDHYIKAITKTDTLAPLQRNEFLEICTILETCGLVSIKKTKCKGKTKRFVDKIDVDLDMREFYDEMTKISILKPFLH
B2: GST-Orc2N200-I194E (domain or fragment)
chain: MLNGEDFVEHNDILSSPAKSRNVTPKRVDPHGERQLRRIHSSKKNLLERISLVGNERKNTSPDPALKPKTPSKAPRKRGRPRKIQEELTDRIKKDEKDTISSKKKRKLDKDTSGNVNEESKTSNNKQVMEKTGIKEKREREKIQVATTTYEDNVTPQTDDNFVSNSPEPPEPATPSKKSLTTNHDFTSPLKQIEMNNLKE

Key:
[1] = target: Orc2-I194E containing ORC (S. cerevisiae, UniProt P54784;P32833;P54790;P54791;P50874;P38826, I194E); assay: MCM loading assay on DNA beads
[2] = target: Orc2-ΔN200 containing ORC (S. cerevisiae, UniProt P54784;P32833;P54790;P54791;P50874;P38826); assay: MCM loading assay on DNA beads
[3] = target: origin recognition complex (ORC), wild type (S. cerevisiae, UniProt P54784;P32833;P54790;P54791;P50874;P38826); assay: MCM loading assay on DNA beads
[4] = target: Orc2-ΔN175 containing ORC (S. cerevisiae, UniProt P54784;P32833;P54790;P54791;P50874;P38826); assay: MCM loading assay on DNA beads
Cdt1-Mcm2-7 heptamer = Cdt1-Mcm2-7 heptamer (S. cerevisiae, UniProt P47112;P29469;P24279;P30665;P29496;P53091;P38132); assay: pull-down

Binder	binding result [1]	binding result [2]	binding result [3]	binding result [4]	binding result (Cdt1-Mcm2-7 heptamer)
B1	binds	binds	binds	binds	
B2					binds
